Where no end group is shown, it is not given here. [ ]: non-standard residue; d: D form. Lys(Me3) = C[N+](C)(C)CCCC[C@H](N)C(=O)O; Lys(Me2) = CN(C)CCCC[C@H](N)C(=O)O; Lys(Me) = CNCCCC[C@H](N)C(=O)O
Tests used:
EED (amino acids 40-441) [1] = molecular target: T1, EED (amino acids 40-441) (human, UniProt O75530-1 40-441); experiment: fluorescence polarisation; fluorescence anisotropy direct titration: various concentrations of EED (40-441) with 40 nM 5-FAM labelled JARID2-K116me3 peptide; 50 mM Tris-HCl pH 7.5, 100 mM KCl, 2 mM 2-mercaptoethanol, 0.1 mg/mL BSA, 0.05% NP-40, 2.5% glycerol; 30 °C, 30 min; conditions: both partners purified
T1 construct: pGEX-MHL vector, TEV-cleavable GST tag; source: E. coli BL21 (DE3), purified (Glutathione-agarose, TEV cleavage, heparin, gel filtration); not shown: GST, N-terminal, cleaved
T1 sequence (O75530 40-441): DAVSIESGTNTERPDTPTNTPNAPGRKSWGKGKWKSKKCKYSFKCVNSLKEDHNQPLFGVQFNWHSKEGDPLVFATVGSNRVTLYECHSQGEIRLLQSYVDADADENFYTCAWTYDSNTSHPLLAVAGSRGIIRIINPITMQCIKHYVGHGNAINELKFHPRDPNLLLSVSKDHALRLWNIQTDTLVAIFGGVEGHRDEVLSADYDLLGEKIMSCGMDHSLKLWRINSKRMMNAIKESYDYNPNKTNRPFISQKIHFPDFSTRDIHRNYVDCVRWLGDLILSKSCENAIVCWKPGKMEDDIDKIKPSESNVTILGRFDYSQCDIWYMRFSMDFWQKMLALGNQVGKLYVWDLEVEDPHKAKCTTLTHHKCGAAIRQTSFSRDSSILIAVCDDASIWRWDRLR

EED (amino acids 40-441) [2] = molecular target: T1, EED (amino acids 40-441); experiment: fluorescence polarisation; fluorescence anisotropy displacement titration: 2-fold serial dilutions of unlabelled peptide with 10 µM EED and 40 nM 5-FAM labelled JARID2-K116me3 peptide; same buffer, 30 °C; Kd of the unlabelled peptide from a fit; conditions: both partners purified

Kd (EED (amino acids 40-441) [1]) | Kd (EED (amino acids 40-441) [2]) | Binder
8.07 µM | – | RLQAQR[Lys(Me3)]FAQSQY (also: 5-FAM (5-carboxyfluorescein, single isomer) label, site not given here) [5-carboxyfluorescein (5-FAM) labelled JARID2-K116me3 peptide]
– | 7.49 µM | LK[Lys(Me3)]FPG [PALI1-K1241me3 peptide]
– | 7.59 µM | LQ[Lys(Me3)]YA [PALI1-K1219me3 peptide]
– | 241 µM | LK[Lys(Me)]FPG [PALI1-K1241me1 peptide]
– | 19 µM | LK[Lys(Me2)]FPG [PALI1-K1241me2 peptide]
– | 41.7 µM | TKAAR[Lys(Me3)]SAPAT (also: trimethyllysine at K27, position not placed (two Lys in chain)) [H3K27me3 peptide]
